From PMC7018950
Values belong to the substance of their own block, whether it stands above or below them.

How the values were obtained:
[1] = target: His6-tagged snapdragon CHS (Antirrhinum majus (snapdragon)) (UniProt P06515)
[2] = target: His6-tagged snapdragon CHS (Antirrhinum majus (snapdragon)) (UniProt P06515); assay: cross-linking; His6-AmCHIL 10 µM and His6-AmCHS 5 µM with 4 mM BS3 at pH 7.5 for 5 min; SDS-PAGE and immunoblot; band of 70 kDa
[3] = target: PpCHS (GAL4 two-hybrid fusion) (Physcomitrella patens)
[4] = target: His6-tagged CHS of ginkgo (Ginkgo biloba); assay: BLI; BLItz; His6-tagged CHS immobilised on anti-His6 sensors, GST-tagged CHIL loaded; 100 mM HEPES-NaOH pH 7.5; 1:1 binding model; apparent KD
[5] = target: His6-tagged Ginkgo biloba chalcone synthase (GbCHS) (Ginkgo biloba); assay: BLI; BLItz; His6-tagged CHS immobilised on anti-His6 sensors, GST-tagged CHIL loaded (30-150 s), wash (150-270 s); 100 mM HEPES-NaOH, pH 7.5; 1:1 binding model; apparent KD
[6] = target: His6-tagged Hydrangea macrophylla chalcone synthase (HmCHS) (Hydrangea macrophylla) (UniProt O82144); assay: as above
[7] = target: His6-tagged Physcomitrella patens chalcone synthase (PpCHS) (Physcomitrella patens); assay: as above
[8] = target: His6-tagged Selaginella moellendorffii chalcone synthase (SmCHS) (Selaginella moellendorffii); assay: as above
[9] = target: His6-tagged morning glory chalcone synthase D (InCHS-D) (Ipomoea nil) (UniProt O22045); assay: as above
[10] = target: His6-tagged rice chalcone synthase 1 (OsCHS-1) (Oryza sativa) (UniProt Q2R3A1); assay: as above
[11] = target: His6-tagged snapdragon chalcone synthase (His6-AmCHS) (Antirrhinum majus) (UniProt P06515); assay: as above
[12] = target: His6-tagged soybean chalcone synthase isozyme 7 (GmCHS-7) (Glycine max) (UniProt P30081); assay: as above
[13] = target: His6-tagged soybean chalcone synthase isozyme 1 (GmCHS-1) (Glycine max) (UniProt P24826); assay: as above
His6-tagged soybean chalcone synthase isozyme 1 (GmCHS-1) (Glycine max), sequence (P24826 whole entry): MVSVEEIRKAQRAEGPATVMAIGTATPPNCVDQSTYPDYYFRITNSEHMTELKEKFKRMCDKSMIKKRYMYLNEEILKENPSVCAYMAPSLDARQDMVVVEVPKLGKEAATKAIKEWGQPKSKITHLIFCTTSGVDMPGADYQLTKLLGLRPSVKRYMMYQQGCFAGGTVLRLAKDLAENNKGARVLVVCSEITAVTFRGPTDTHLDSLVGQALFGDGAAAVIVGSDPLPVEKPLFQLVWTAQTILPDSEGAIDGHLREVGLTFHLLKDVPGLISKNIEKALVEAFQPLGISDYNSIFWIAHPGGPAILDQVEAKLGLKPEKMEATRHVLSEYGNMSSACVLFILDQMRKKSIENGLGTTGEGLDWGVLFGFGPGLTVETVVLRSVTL

His6-tagged snapdragon chalcone synthase (His6-AmCHS) (Antirrhinum majus), sequence (P06515 whole entry): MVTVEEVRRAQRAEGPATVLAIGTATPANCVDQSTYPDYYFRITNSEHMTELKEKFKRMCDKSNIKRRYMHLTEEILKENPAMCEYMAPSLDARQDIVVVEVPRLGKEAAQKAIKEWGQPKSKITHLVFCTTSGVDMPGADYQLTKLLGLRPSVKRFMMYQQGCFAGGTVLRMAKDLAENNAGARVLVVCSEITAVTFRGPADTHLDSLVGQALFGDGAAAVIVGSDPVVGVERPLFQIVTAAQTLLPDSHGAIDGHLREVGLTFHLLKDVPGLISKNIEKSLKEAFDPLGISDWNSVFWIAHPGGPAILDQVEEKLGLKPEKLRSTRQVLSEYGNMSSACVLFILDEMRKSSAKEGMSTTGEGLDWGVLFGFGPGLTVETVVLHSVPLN
His6-tagged snapdragon CHS (Antirrhinum majus (snapdragon)), sequence (P06515 whole entry, the tested form may be a part): as the sequence (P06515 whole entry) above
His6-tagged rice chalcone synthase 1 (OsCHS-1) (Oryza sativa), sequence (Q2R3A1 whole entry): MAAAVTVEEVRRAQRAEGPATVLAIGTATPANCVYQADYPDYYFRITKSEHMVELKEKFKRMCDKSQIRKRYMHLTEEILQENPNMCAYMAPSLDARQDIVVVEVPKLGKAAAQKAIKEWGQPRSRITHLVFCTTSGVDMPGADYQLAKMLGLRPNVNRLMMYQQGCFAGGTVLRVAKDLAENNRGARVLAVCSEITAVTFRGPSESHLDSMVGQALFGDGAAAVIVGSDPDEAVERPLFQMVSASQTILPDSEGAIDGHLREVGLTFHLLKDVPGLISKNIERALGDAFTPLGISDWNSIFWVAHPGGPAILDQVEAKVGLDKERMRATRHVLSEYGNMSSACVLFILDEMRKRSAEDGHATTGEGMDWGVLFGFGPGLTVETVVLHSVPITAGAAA
His6-tagged soybean chalcone synthase isozyme 7 (GmCHS-7) (Glycine max), sequence (P30081 whole entry): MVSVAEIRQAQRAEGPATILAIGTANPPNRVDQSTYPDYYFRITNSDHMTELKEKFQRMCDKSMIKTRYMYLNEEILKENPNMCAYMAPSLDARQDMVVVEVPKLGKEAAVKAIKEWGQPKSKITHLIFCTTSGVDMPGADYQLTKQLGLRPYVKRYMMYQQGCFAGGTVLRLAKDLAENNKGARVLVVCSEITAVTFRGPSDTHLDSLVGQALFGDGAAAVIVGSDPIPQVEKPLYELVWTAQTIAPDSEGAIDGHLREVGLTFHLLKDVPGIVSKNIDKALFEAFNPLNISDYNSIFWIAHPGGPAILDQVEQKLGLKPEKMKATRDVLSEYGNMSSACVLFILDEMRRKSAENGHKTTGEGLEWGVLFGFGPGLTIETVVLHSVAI
His6-tagged morning glory chalcone synthase D (InCHS-D) (Ipomoea nil), sequence (O22045 whole entry): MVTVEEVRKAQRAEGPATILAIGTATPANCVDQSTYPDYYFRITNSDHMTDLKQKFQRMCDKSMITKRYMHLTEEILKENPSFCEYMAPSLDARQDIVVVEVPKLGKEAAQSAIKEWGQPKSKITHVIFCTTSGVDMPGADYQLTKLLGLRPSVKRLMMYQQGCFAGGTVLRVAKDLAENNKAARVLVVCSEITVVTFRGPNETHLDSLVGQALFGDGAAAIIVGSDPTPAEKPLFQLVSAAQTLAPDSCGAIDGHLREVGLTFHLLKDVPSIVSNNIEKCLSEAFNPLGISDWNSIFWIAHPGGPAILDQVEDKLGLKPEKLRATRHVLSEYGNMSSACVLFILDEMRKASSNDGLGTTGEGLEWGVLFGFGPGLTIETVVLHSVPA
His6-tagged Hydrangea macrophylla chalcone synthase (HmCHS) (Hydrangea macrophylla), sequence (O82144 whole entry): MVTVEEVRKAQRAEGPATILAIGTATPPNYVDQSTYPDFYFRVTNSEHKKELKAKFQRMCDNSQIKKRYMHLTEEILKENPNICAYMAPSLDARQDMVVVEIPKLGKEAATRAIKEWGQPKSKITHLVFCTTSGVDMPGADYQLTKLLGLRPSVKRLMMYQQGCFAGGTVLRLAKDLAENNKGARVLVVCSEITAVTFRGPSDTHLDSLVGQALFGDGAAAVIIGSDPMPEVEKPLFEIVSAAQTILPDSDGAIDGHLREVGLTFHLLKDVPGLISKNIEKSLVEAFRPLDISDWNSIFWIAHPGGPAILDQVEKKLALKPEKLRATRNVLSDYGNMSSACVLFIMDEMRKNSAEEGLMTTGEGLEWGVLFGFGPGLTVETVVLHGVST
His6-tagged Physcomitrella patens chalcone synthase (PpCHS) (Physcomitrella patens), sequence (Q2VAZ3 entry or part of it): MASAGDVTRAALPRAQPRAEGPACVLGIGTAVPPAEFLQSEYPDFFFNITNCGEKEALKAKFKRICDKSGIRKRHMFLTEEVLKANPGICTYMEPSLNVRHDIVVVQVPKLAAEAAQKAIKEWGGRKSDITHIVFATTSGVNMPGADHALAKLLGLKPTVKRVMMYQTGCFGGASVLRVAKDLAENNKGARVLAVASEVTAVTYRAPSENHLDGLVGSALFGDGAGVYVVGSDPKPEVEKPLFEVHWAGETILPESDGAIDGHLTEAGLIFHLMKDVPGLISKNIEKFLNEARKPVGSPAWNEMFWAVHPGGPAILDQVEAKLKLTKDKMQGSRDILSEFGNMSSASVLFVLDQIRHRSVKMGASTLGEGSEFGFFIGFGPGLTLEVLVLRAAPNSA

Substance: PpCHIL (GAL4 two-hybrid fusion) (natural protein)
E value (chalconoid excess over CTAL) of the reaction catalysed by 0.1 µM PpCHS in the presence of 1 µM CHIL (−67% without CHIL); purified recombinant proteins [3]: 90%

Substance: glutathione S-transferase-tagged CHIL of ginkgo (natural protein)
Kd [4]: 126 nM

Substance: glutathione S-transferase-tagged Hydrangea macrophylla chalcone isomerase-like protein (HmCHIL) (natural protein)
Kd [6]: 24.1 nM
koff [6]: 0.00277 s⁻¹
kon [6]: 115000 M⁻¹ s⁻¹

Substance: glutathione S-transferase-tagged Physcomitrella patens chalcone isomerase-like protein A (PpCHIL-A) (natural protein)
Kd [7]: 2.69 nM
koff [7]: 0.000319 s⁻¹
kon [7]: 118000 M⁻¹ s⁻¹

Substance: glutathione S-transferase-tagged rice chalcone isomerase-like protein A (OsCHIL-A) (natural protein)
Kd [10]: 64.4 nM
koff [10]: 0.000672 s⁻¹
kon [10]: 10400 M⁻¹ s⁻¹

Further lines, results first:

E value (chalconoid excess over CTAL) of the reaction catalysed by 0.1 µM AmCHS in the presence of 1 µM CHIL (+18% without CHIL) [1]: 80%
amount of THC and naringenin (chalconoids) formed by 0.1 µM AmCHS with 1.0 µM AmCHIL against without, with a substantial decrease in CTAL formation [1]: 1.7 fold
stoichiometry N (CHIL monomer per CHS monomer) [2]: 1
Substance: His6-tagged snapdragon CHIL (natural protein)

koff [5]: 0.000154 s⁻¹
kon [5]: 20200 M⁻¹ s⁻¹
Substance: glutathione S-transferase-tagged Ginkgo biloba chalcone isomerase-like protein (GbCHIL) (natural protein)

Kd [8]: 56.6 nM
koff [8]: 0.000674 s⁻¹
kon [8]: 11900 M⁻¹ s⁻¹
Substance: glutathione S-transferase-tagged Selaginella moellendorffii chalcone isomerase-like protein (SmCHIL) (natural protein)

Kd [9]: 1.05 nM
koff [9]: 0.000206 s⁻¹
kon [9]: 196000 M⁻¹ s⁻¹
Substance: glutathione S-transferase-tagged morning glory chalcone isomerase-like protein (InCHIL) (natural protein)

Kd [11]: 62.6 nM
koff [11]: 0.00183 s⁻¹
kon [11]: 29300 M⁻¹ s⁻¹
Substance: glutathione S-transferase-tagged snapdragon chalcone isomerase-like protein (AmCHIL) (natural protein)

Kd [12]: 19.3 nM
koff [12]: 0.00113 s⁻¹
kon [12]: 58300 M⁻¹ s⁻¹
Kd [13]: 7.46 nM
koff [13]: 0.000381 s⁻¹
kon [13]: 51000 M⁻¹ s⁻¹
Substance: glutathione S-transferase-tagged soybean chalcone isomerase-like protein (GmCHIL) (natural protein)
